# Results as given in patent US20030068675, “Position dependent recognition of GNN nucleotide triplets by zinc fingers” (published 2003).
# Substitutions are numbered along the chain they refer to.
# T1: ZFP SBS#981 (synthetic, UniProt P08047)
# T1 chain: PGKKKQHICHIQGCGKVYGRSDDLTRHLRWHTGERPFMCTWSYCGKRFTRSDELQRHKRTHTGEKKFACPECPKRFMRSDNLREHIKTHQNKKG
# T2: ZFP SBS#990 (synthetic, UniProt P08047)
# T2 chain: T1 chain with R20D, S21R, D22S, D23H, E53S, Q55A, R83T, E84Q
# T3: ZFP SBS#973 (synthetic)
# T3 chain: T1 chain with R20D, S21R, D22S, D23A, R78E, S79R, D80G, N81T, R83A, E84R
# T4: ZFP SBS#974 (synthetic)
# T4 chain: T1 chain with R20D, S21R, D22S, D23A, R78D, S79R, D80S, N81D, R83T, E84R
# T5: ZFP SBS#435 (synthetic)
# T5 chain: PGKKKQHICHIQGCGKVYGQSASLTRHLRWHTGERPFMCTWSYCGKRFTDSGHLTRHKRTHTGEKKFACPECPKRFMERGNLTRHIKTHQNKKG
# T6: ZFP SBS#434 (synthetic)
# T6 chain: T5 chain with R79K, G80A
# T7: ZFP SBS#965 (synthetic)
# T7 chain: T1 chain with R20E, S21R, D22G, N81E, L82R, R83K, E84R
# T8: ZFP SBS#982 (synthetic)
# T8 chain: T1 chain with D23H, R26T, R50D, S51R, D52S, E53H, Q55A, N81E
# T9: ZFP SBS#983 (synthetic)
# T9 chain: T1 chain with D23H, R26K, R50D, S51R, D52S, E53H, Q55A, N81E
# T10: ZFP SBS#985 (synthetic)
# T10 chain: T5 chain with Q20R, A22D, S23N, T25A, S51R, G52S, T55A, R79K, G80A
# T11: ZFP SBS#984 (synthetic)
# T11 chain: T5 chain with Q20R, A22D, S23N, T25A, S51R, G52S, T55A, E78D, G80S
# T12: ZFP SBS#939 (synthetic)
# T12 chain: T1 chain with D23H, R26T, R50D, S51R, D52S, E53H, Q55A, N81H, R83S, E84K
# T13: ZFP SBS#989 (synthetic)
# T13 chain: T1 chain with D23H, T25A, E53N, Q55A, R78M, D80H, N81H, R83S, E84R
# T14: ZFP SBS#967 (synthetic)
# T14 chain: T1 chain with R20D, S21R, D22S, D23S, E53N, Q55S, R83A, E84R
# T15: ZFP SBS#966 (synthetic)
# T15 chain: T1 chain with R20E, S21R, D22G, D23T, T25A, E53N, Q55S, R83A, E84R
# T16: ZFP SBS#977 (synthetic)
# T16 chain: T1 chain with D23S, R50Q, D52G, E53S, Q55T, N81A
# T17: ZFP SBS#978 (synthetic)
# T17 chain: T1 chain with D23S, R50Q, D52G, E53D, Q55T, N81A
# T18: ZFP SBS#975 (synthetic)
# T18 chain: T1 chain with R20Q, D22S, R50D, S51R, D52S, E53S, Q55T
# T19: ZFP SBS#971 (synthetic)
# T19 chain: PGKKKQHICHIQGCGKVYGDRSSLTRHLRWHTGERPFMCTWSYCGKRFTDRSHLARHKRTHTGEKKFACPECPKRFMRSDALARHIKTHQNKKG
# T20: ZFP SBS#972 (synthetic)
# T20 chain: T19 chain with D20E, S22G, S23D
# T21: ZFP SBS#970 (synthetic)
# T21 chain: T19 chain with D20E, S22G, S23T, T25A
# T22: ZFP SBS#968 (synthetic)
# T22 chain: T19 chain with D20Q, R21S, S22G, H53S, A55T, A81N
# T23: ZFP SBS#969 (synthetic)
# T23 chain: T19 chain with D20Q, R21S, S22G, H53D, A55T, A81N
# B1: CAGGCGGCG (dsDNA)
# DNA 1: CAGGCGGCG
# DNA 2: CGCCGCCTG
# B2: AAGGTGGGC (dsDNA)
# DNA 1: AAGGTGGGC
# DNA 2: GCCCACCTT
# B3: GCCGCGGTC (dsDNA)
# DNA 1: GCCGCGGTC
# DNA 2: GACCGCGGC
# B4: GACGGCGTA (dsDNA)
# DNA 1: GACGGCGTA
# DNA 2: TACGCCGTC
# B5: GCGGCGGCC (dsDNA)
# DNA 1: GCGGCGGCC
# DNA 2: GGCCGCCGC
# B6: GAGGGGGCG (dsDNA)
# DNA 1: GAGGGGGCG
# DNA 2: CGCCCCCTC
# B7: CCGGGCTGG (dsDNA)
# DNA 1: CCGGGCTGG
# DNA 2: CCAGCCCGG
# B8: GACGGCGAG (dsDNA)
# DNA 1: GACGGCGAG
# DNA 2: CTCGCCGTC
# B9: GGGGGCTGG (dsDNA)
# DNA 1: GGGGGCTGG
# DNA 2: CCAGCCCCC
# B10: GGTGAGGGG (dsDNA)
# DNA 1: GGTGAGGGG
# DNA 2: CCCCTCACC
# B11: GAGGAGGCC (dsDNA)
# DNA 1: GAGGAGGCC
# DNA 2: GGCCTCCTC
# B12: GTAGGGGCG (dsDNA)
# DNA 1: GTAGGGGCG
# DNA 2: CGCCCCTAC
# B13: AGAGAGGCT (dsDNA)
# DNA 1: AGAGAGGCT
# DNA 2: AGCCTCTCT
# B14: CTGGCAGTG (dsDNA)
# DNA 1: CTGGCAGTG
# DNA 2: CACTGCCAG
# B15: CAGGCCGCT (dsDNA)
# DNA 1: CAGGCCGCT
# DNA 2: AGCGGCCTG
# B16: GGAGCTGAC (dsDNA)
# DNA 1: GGAGCTGAC
# DNA 2: GTCAGCTCC
# B17: GTGGGCGCC (dsDNA)
# DNA 1: GTGGGCGCC
# DNA 2: GGCGCCCAC
# B18: GAGGCCGCA (dsDNA)
# DNA 1: GAGGCCGCA
# DNA 2: TGCGGCCTC
# How the values were obtained:
# Assay in all cases: EMSA
# Settings in all cases: tags: MBP fusion
# ZFP SBS#981 = molecular target: T1, ZFP SBS#981
# How it was run: (§1)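 Purified ZFP was titrated against labeled double-stranded target (1 nM or lower, at least 10-fold below expected Kd) carrying the natural binding site with flanks. Binding buffer was 10 mM Tris pH 7.5, 100 mM KCl, 1 mM MgCl2, 0.1 mM ZnCl2, 5 mM DTT, 10% glycerol, 0.02% BSA, with equilibration for at least 45 min. Bound and free target were separated on a 10% polyacrylamide gel.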
# ZFP SBS#990 = molecular target: T2, ZFP SBS#990
# How it was run: as §1
# ZFP SBS#991 = ZFP SBS#991 (synthetic)
# How it was run: as §1
# ZFP SBS#973 = molecular target: T3, ZFP SBS#973
# How it was run: as §1
# ZFP SBS#974 = molecular target: T4, ZFP SBS#974
# How it was run: as §1
# ZFP SBS#435 = molecular target: T5, ZFP SBS#435
# How it was run: as §1
# ZFP SBS#434 = molecular target: T6, ZFP SBS#434
# How it was run: as §1
# ZFP SBS#437 = ZFP SBS#437 (synthetic)
# How it was run: as §1
# ZFP SBS#436 = ZFP SBS#436 (synthetic)
# How it was run: as §1
# ZFP SBS#965 = molecular target: T7, ZFP SBS#965
# How it was run: as §1
# ZFP SBS#438 = ZFP SBS#438 (synthetic)
# How it was run: as §1
# ZFP SBS#368 = ZFP SBS#368 (synthetic)
# How it was run: as §1
# ZFP SBS#982 = molecular target: T8, ZFP SBS#982
# How it was run: as §1
# ZFP SBS#983 = molecular target: T9, ZFP SBS#983
# How it was run: as §1
# ZFP SBS#985 = molecular target: T10, ZFP SBS#985
# How it was run: as §1
# ZFP SBS#984 = molecular target: T11, ZFP SBS#984
# How it was run: as §1
# ZFP SBS#939 = molecular target: T12, ZFP SBS#939
# How it was run: as §1
# ZFP SBS#940 = ZFP SBS#940 (synthetic)
# How it was run: as §1
# ZFP SBS#994 = ZFP SBS#994 (synthetic)
# How it was run: as §1
# ZFP SBS#989 = molecular target: T13, ZFP SBS#989
# How it was run: as §1
# ZFP SBS#967 = molecular target: T14, ZFP SBS#967
# How it was run: as §1
# ZFP SBS#966 = molecular target: T15, ZFP SBS#966
# How it was run: as §1
# ZFP SBS#1006 = ZFP SBS#1006 (synthetic)
# How it was run: as §1
# ZFP SBS#999 = ZFP SBS#999 (synthetic)
# How it was run: as §1
# ZFP SBS#997 = ZFP SBS#997 (synthetic)
# How it was run: as §1
# ZFP SBS#977 = molecular target: T16, ZFP SBS#977
# How it was run: as §1
# ZFP SBS#978 = molecular target: T17, ZFP SBS#978
# How it was run: as §1
# ZFP SBS#976 = ZFP SBS#976 (synthetic)
# How it was run: as §1
# ZFP SBS#975 = molecular target: T18, ZFP SBS#975
# How it was run: as §1
# ZFP SBS#1001 = ZFP SBS#1001 (synthetic)
# How it was run: as §1
# ZFP SBS#971 = molecular target: T19, ZFP SBS#971
# How it was run: as §1
# ZFP SBS#972 = molecular target: T20, ZFP SBS#972
# How it was run: as §1
# ZFP SBS#970 = molecular target: T21, ZFP SBS#970
# How it was run: as §1
# ZFP SBS#968 = molecular target: T22, ZFP SBS#968
# How it was run: as §1
# ZFP SBS#969 = molecular target: T23, ZFP SBS#969
# How it was run: as §1
# Sequence of ZFP SBS#437 (synthetic) (chain, as listed by the source): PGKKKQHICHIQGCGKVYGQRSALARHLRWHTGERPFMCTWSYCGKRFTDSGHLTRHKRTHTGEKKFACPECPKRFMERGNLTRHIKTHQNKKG
# Sequence of ZFP SBS#436 (synthetic) (chain, as listed by the source): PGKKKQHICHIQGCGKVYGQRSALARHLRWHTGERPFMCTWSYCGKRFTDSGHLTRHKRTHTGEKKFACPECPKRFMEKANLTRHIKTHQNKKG
# Sequence of ZFP SBS#997 (synthetic) (chain, as listed by the source): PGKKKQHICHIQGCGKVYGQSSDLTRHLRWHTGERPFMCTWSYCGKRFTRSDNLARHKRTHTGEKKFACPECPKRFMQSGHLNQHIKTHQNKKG
# Sequence of ZFP SBS#1001 (synthetic) (chain, as listed by the source): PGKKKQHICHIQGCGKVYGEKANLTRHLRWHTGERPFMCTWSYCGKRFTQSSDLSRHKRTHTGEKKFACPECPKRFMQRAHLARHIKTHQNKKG
# Sequence of ZFP SBS#368 (synthetic) (chain, as listed by the source): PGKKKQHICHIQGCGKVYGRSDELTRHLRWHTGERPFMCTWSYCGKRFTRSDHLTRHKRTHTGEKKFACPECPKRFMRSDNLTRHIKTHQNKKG
# Sequence of ZFP SBS#1006 (synthetic) (chain, as listed by the source): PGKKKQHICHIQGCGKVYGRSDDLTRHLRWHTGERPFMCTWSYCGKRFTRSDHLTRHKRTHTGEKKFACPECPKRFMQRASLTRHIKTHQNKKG
# Sequence of ZFP SBS#940 (synthetic) (chain, as listed by the source): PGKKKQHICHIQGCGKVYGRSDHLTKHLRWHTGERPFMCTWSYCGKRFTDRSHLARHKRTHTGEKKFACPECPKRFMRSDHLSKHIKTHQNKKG
# Sequence of ZFP SBS#976 (synthetic) (chain, as listed by the source): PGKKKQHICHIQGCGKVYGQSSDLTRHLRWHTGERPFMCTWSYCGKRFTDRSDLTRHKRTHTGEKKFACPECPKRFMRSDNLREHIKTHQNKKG
# Sequence of ZFP SBS#999 (synthetic) (chain, as listed by the source): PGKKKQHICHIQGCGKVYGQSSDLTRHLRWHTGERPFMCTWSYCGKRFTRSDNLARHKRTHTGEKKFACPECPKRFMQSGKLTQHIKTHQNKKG
# Sequence of ZFP SBS#991 (synthetic) (chain, as listed by the source): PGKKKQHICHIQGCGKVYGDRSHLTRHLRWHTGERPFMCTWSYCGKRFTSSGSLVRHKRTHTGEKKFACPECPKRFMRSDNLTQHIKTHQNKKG
binder,measurement,setting,value
B1,Kd,ZFP SBS#981,0.375 nM
B2,Kd,ZFP SBS#990,5.35 nM
same,Kd,ZFP SBS#991,0.06 nM
B3,Kd,ZFP SBS#973,0.6 nM
same,Kd,ZFP SBS#974,0.038 nM
B4,Kd,ZFP SBS#435,150 nM
same,Kd,ZFP SBS#434,152 nM
same,Kd,ZFP SBS#437,118 nM
same,Kd,ZFP SBS#436,95 nM
B5,Kd,ZFP SBS#965,3.1 nM
B6,Kd,ZFP SBS#438,62.5 nM
same,Kd,ZFP SBS#368,3.5 nM
B7,Kd,ZFP SBS#982,0.03 nM
same,Kd,ZFP SBS#983,1.39 nM
B8,Kd,ZFP SBS#985,0.965 nM
same,Kd,ZFP SBS#984,1.6 nM
B9,Kd,ZFP SBS#939,0.352 nM
same,Kd,ZFP SBS#940,1.5 nM
same,Kd,ZFP SBS#994,0.03 nM
B10,Kd,ZFP SBS#989,1.9 nM
B11,Kd,ZFP SBS#967,0.055 nM
same,Kd,ZFP SBS#966,0.028 nM
B12,Kd,ZFP SBS#1006,0.898 nM
B13,Kd,ZFP SBS#999,0.6 nM
same,Kd,ZFP SBS#997,1.65 nM
B14,Kd,ZFP SBS#977,0.017 nM
same,Kd,ZFP SBS#978,1.58 nM
B15,Kd,ZFP SBS#976,4.12 nM
same,Kd,ZFP SBS#975,1.1 nM
B16,Kd,ZFP SBS#1001,1.8 nM
B17,Kd,ZFP SBS#971,0.144 nM
same,Kd,ZFP SBS#972,1.75 nM
same,Kd,ZFP SBS#970,1.86 nM
B18,Kd,ZFP SBS#968,1.4 nM
same,Kd,ZFP SBS#969,0.275 nM
